Data from patent US20180127487A1 (Sanofi, published 2018).
Read-outs that look alike come from different tables or passages of the source.

T1: recombinant mouse FcRn (mouse, UniProt Q61559 22-297; P01887 21-119)
T1 sequence 1: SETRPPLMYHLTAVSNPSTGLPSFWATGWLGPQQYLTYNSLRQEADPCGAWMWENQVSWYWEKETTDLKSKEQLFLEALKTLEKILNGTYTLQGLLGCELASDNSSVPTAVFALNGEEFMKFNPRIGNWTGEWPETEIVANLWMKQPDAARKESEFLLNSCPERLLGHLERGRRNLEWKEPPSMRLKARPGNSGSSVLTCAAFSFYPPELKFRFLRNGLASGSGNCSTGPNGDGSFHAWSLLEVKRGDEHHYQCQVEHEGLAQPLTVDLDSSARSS
T1 sequence 2: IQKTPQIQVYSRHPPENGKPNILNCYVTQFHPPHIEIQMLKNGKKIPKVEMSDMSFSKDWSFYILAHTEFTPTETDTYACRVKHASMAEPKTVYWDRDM

B1: mAb9 (antibody)
heavy: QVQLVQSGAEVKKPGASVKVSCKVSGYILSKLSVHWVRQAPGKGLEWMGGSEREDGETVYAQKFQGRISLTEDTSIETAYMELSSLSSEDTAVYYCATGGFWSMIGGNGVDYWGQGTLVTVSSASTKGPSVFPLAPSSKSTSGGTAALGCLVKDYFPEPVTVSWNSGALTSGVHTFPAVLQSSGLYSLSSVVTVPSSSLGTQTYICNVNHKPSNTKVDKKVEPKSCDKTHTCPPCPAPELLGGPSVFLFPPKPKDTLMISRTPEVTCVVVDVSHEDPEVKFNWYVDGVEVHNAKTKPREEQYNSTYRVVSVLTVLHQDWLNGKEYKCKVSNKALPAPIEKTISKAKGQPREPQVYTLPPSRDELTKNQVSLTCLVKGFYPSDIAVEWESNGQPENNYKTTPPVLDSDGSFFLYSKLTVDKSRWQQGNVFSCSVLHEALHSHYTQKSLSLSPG
light: QAVVTQSPSSLPASVGDRVTITCRASQDIRNNLGWYQQKPGKAPERLIYGTSNLQSGVPSRFSGSGSGTEFTLTISSLQPEDFATYYCLQHNSYPPTFGRGTKVEIKRTVAAPSVFIFPPSDEQLKSGTASVVCLLNNFYPREAKVQWKVDNALQSGNSQESVTEQDSKDSTYSLSSTLTLSKADYEKHKVYACEVTHQGLSSPVTKSFNRGEC
notes: also called mAb2LS
B2: mAb13 (antibody)
heavy: QVQLVQSGAEVKKPGASVKVSCKVSGYILSKLSVHWVRQAPGKGLEWMGGSEREDGETVYAQKFQGRISLTEDTSIETAYMELSSLSSEDTAVYYCATGGFWSMIGGQGVDYWGQGTLVTVSSASTKGPSVFPLAPSSKSTSGGTAALGCLVKDYFPEPVTVSWNSGALTSGVHTFPAVLQSSGLYSLSSVVTVPSSSLGTQTYICNVNHKPSNTKVDKKVEPKSCDKTHTCPPCPAPELLGGPSVFLFPPKPKDTLYITREPEVTCVVVDVSHEDPEVKFNWYVDGVEVHNAKTKPREEQYNSTYRVVSVLTVLHQDWLNGKEYKCKVSNKALPAPIEKTISKAKGQPREPQVYTLPPSRDELTKNQVSLTCLVKGFYPSDIAVEWESNGQPENNYKTTPPVLDSDGSFFLYSKLTVDKSRWQQGNVFSCSVMHEALHNHYTQKSLSLSPG
light: B1 light
notes: also called mAb2N108QYTE
B3: mAb14 (antibody)
heavy: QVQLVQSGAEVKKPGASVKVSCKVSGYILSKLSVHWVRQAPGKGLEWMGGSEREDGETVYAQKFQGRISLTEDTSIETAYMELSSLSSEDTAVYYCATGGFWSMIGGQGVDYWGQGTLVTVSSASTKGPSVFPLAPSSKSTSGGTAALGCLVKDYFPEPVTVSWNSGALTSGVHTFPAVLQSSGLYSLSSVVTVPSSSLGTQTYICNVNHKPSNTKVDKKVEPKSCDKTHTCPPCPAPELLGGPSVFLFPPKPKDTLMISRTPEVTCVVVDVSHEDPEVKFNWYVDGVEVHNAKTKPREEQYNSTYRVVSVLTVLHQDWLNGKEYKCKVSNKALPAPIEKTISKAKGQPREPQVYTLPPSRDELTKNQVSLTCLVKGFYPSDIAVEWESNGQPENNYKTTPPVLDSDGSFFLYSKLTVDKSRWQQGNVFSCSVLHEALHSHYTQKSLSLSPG
light: B1 light
notes: also called mAb2N108QLS
B4: mAb1 (antibody)
heavy: not shown
light: QAVVTQPPSVSGAPGQRVTISCTGSSSNIGADYNVHWYQLLPGTAPKLLIYGNTNRPSGVPDRFSGSKSGTSASLAITGLQAEDEADYYCQSYDSSLSASVFGGGTKLTVLGQPKAAPSVTLFPPSSEELQANKATLVCLISDFYPGAVTVAWKADSSPVKAGVETTTPSKQSNNKYAASSYLSLTPEQWKSHRSYSCQVTHEGSTVEKTVAPTECS
notes: also called parent antibody mAb1
B5: mAb7 (antibody)
heavy: not shown
light: B4 light
notes: also called mAb1LS

How the values were obtained:
recombinant mouse FcRn [1] = biological target: T1, recombinant mouse FcRn; assay: SPR, mouse FcRn immobilised; relative to mAb2
recombinant human FcRn [2] = biological target: T2, recombinant human FcRn (human, UniProt P55899 24-297; P61769 21-119); assay: SPR, human FcRn immobilised; relative to mAb2
T2 construct: also called human FcRn receptor

[3] = biological target: T3, Recombinant human HPC4-tagged FcγRIIIa-V158 (human, UniProt P08637 17-208); assay: SPR (Biacore 3000), HPC4-tagged FcγRIIIa-V158 captured on anti-HPC4 CM5 chip, antibody injected 2 min, in duplicate; concentration (900, 300 or 100 nM in the methods) not printed on the sheet
T3 construct: Valine at 158 is a polymorphism, named without an old residue; also called Val158; not shown: HPC4 tag

[4] = biological target: T4, His-tagged CHIKV E2 LR2006 (Chikungunya virus strain LR2006, UniProt Q8JUX5 326-1220); assay: SPR, His-tagged antigen captured
T4 construct: also called CHIKV pE2-E1 antigen derived from CHIKV strain LR2006; pE2-E1 target

[5] = biological target: T5, His-tagged CHIKV E2 SL15649 (Chikungunya virus strain SL15649, UniProt Q8JUX5 326-1220); assay: SPR, His-tagged antigen captured
T5 construct: also called CHIKV pE2-E1 antigen derived from CHIKV strain SL15649; pE2-E1 target

recombinant mouse FcRn [6] = biological target: T1, recombinant mouse FcRn; assay: SPR (Biacore T200), mouse FcRn immobilised on CM5 chip
[7] = biological target: T6, Recombinant human HPC4-tagged FcγRIII-F158 (human, UniProt P08637 17-208); assay: SPR (Biacore 3000), HPC4-tagged FcγRIII-F158 captured on anti-HPC4 CM5 chip, antibody injected 2 min, in duplicate; concentration (900, 300 or 100 nM in the methods) not printed on the sheet
T6 construct: also called FcγRIIIaF158; not shown: HPC4 tag

recombinant human FcRn [8] = biological target: T2, recombinant human FcRn; assay: SPR (Biacore T200), human FcRn immobilised on CM5 chip
Antigen (E2) [9] = biological target: Antigen (E2) (Chikungunya virus); assay: SPR (Biacore T200), His-tagged antigen captured by anti-His antibody, 1:1 model
[10] = biological target: T4, His-tagged CHIKV E2 LR2006; assay: SPR, His-tagged antigen captured (example 3, FIG. 5)
[11] = biological target: T5, His-tagged CHIKV E2 SL15649; assay: as above
recombinant mouse FcRn [12] = biological target: T1, recombinant mouse FcRn; assay: SPR (Biacore T200), mouse FcRn immobilised on CM5 chip; remark: listed apart in the source
[13] = biological target: T3, Recombinant human HPC4-tagged …; assay: SPR (Biacore 3000), HPC4-tagged FcγRIIIa-V158 captured on anti-HPC4 CM5 chip, antibody injected 2 min, in duplicate; concentration (900, 300 or 100 nM in the methods) not printed on the sheet; remark: listed apart in the source
[14] = biological target: T7, CHIKV La Reunion (LR) strain, ECSA lineage (envelope protein E2 on virus) (Chikungunya virus); assay: cell-based or functional assay
[15] = biological target: T8, CHIKV Caribbean strain, Asian lineage (envelope protein E2 on virus) (Chikungunya virus); assay: cell-based or functional assay
[16] = biological target: T9, CHIKV 37997 strain, West African lineage (envelope protein E2 on virus) (Chikungunya virus); assay: cell-based or functional assay
[17] = biological target: T6, Recombinant human HPC4-tagged …; assay: SPR (Biacore 3000), HPC4-tagged FcγRIII-F158 captured on anti-HPC4 CM5 chip, antibody injected 2 min, in duplicate; concentration (900, 300 or 100 nM in the methods) not printed on the sheet; remark: listed apart in the source
recombinant human FcRn [18] = biological target: T2, recombinant human FcRn; assay: SPR (Biacore T200), human FcRn immobilised on CM5 chip; remark: listed apart in the source
recombinant human FcRn [19] = biological target: T2, recombinant human FcRn; assay: SPR, human FcRn immobilised; relative to mAb1
[20] = biological target: T7, CHIKV La Reunion (LR) strain, ECSA …; assay: cell-based or functional assay; remark: listed apart in the source
[21] = biological target: T8, CHIKV Caribbean strain, Asian lineage …; assay: cell-based or functional assay; remark: listed apart in the source
[22] = biological target: T9, CHIKV 37997 strain, West African …; assay: cell-based or functional assay; remark: listed apart in the source
recombinant mouse FcRn [23] = biological target: T1, recombinant mouse FcRn; assay: SPR, mouse FcRn immobilised; relative to mAb1
Antigen (E2) [24] = biological target: Antigen (E2) (Chikungunya virus); assay: SPR (Biacore T200), His-tagged antigen captured by anti-His antibody, 1:1 model; remark: listed apart in the source

T6 sequence (P08637 17-208): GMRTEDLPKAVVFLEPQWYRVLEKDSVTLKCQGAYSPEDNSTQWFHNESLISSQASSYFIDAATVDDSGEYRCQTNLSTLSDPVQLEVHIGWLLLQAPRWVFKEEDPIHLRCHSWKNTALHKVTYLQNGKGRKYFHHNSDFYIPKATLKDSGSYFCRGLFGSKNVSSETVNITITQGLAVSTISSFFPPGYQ
T2 sequence (P55899 24-297 limits assumed, chain 1 of 2): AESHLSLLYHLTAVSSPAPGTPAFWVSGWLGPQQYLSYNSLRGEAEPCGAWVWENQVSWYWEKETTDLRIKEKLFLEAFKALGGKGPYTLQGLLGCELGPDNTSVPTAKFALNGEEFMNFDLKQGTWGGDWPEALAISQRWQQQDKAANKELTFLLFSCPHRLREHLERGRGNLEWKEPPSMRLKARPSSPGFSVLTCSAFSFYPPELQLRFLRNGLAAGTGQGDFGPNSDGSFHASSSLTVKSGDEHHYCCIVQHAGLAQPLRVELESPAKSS
T2 sequence (P61769 21-119 limits assumed, chain 2 of 2): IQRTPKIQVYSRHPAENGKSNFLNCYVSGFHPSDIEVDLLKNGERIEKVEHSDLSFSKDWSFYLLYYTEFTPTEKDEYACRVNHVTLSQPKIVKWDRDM
T3 sequence (P08637 17-208 F176V): as the sequence (P08637 17-208) above, with F160V counted along it

| Binder | Affinity Increase (fold) (recombinant mouse FcRn [1]) | Affinity Increase (fold) (recombinant human FcRn [2]) | binding result [3] | Kd (recombinant mouse FcRn [6]) | binding result [7] | Kd (recombinant human FcRn [8]) | Kd (Antigen (E2) [9]) | binding result [10] | binding result [11] | Kd (recombinant mouse FcRn [12]) | binding result [13] | In vitro neutralization - EC50 (ng/ml), plaque reduction assay on Vero cells [14] | In vitro neutralization - EC50 (ng/ml), plaque reduction assay on Vero cells [15] | In vitro neutralization - EC50 (ng/ml), plaque reduction assay on Vero cells [16] | binding result [17] | Kd (recombinant human FcRn [18]) | Affinity Increase (fold) (recombinant human FcRn [19]) | EC50, plaque reduction neutralization [20] | EC50, plaque reduction neutralization [21] | EC50, plaque reduction neutralization [22] | other results |
| --- | --- | --- | --- | --- | --- | --- | --- | --- | --- | --- | --- | --- | --- | --- | --- | --- | --- | --- | --- | --- | --- |
| B1 | 3 fold | 16.6 fold | binds | 7.5 nM | binds | 20 nM | 0.25 nM | – | – | – | – | – | – | – | – | – | – | – | – | – | binding result [4]: binds; binding result [5]: binds |
| B2 | 13.7 fold | 13.7 fold | binds | 1.6 nM | binds | 24 nM | – | binds | binds | – | – | – | – | – | – | – | – | – | – | – | – |
| B3 | 3.6 fold | 18.2 fold | binds | 6.2 nM | binds | 18 nM | 0.12 nM | binds | binds | – | – | – | – | – | – | – | – | – | – | – | – |
| B4 | – | – | – | – | – | – | – | – | – | 20 nM | binds | 3.9 ng/mL | 7.6 ng/mL | 4.8 ng/mL | binds | 348 nM | 1 fold | < 10 ng/mL | < 10 ng/mL | < 10 ng/mL | Affinity Increase (fold) (recombinant mouse FcRn [23]): 1 fold; Kd (Antigen (E2) [24]): 0.13 nM |
| B5 | – | – | – | – | – | – | – | – | – | 5.9 nM | binds | 0.3 ng/mL | 0.6 ng/mL | 0.2 ng/mL | binds | 15 nM | 23.8 fold | < 1 ng/mL | < 1 ng/mL | < 1 ng/mL | Affinity Increase (fold) (recombinant mouse FcRn [23]): 3.4 fold; Kd (Antigen (E2) [24]): 0.17 nM |
